Measured values reported in paper PMC10638403, “A closed translocation channel in the substrate-free AAA+ ClpXP protease diminishes rogue degradation” (Nature Communications, 2023).

B1: full-length E. coli ClpX (enzyme)
chain: not shown
notes: ClpX, E. coli, full length, with a neutral K408E mutation; The methods tell two purifications for full-length ClpX (Ni-NTA, gel filtration and ion exchange; or ammonium sulfate, phenyl-Sepharose and mono-Q), so the His6 tag on this form is not certain; The N-terminal domains were not visible in the map; models typically hold residues 65-413; also called wild-type ClpX; ClpX6; source: E. coli …
B2: E. coli ClpP (enzyme)
chain: not shown
notes: ClpP peptidase, E. coli; models hold residues 2-193 of each subunit; also called ClpP14; double-ring ClpP tetradecamer; source: E. coli HMS174(DE3), pT7 plasmid, purified (Ni-NTA, size-exclusion chromatography); copies: 14

What was measured:
[1] = biological target: the molecule itself; test: cryo-EM structure; ClpX6 (5.8 µM), ClpP14 (1.9 µM), λO-Arc (20 µM dimer), ATPγS (2.5 mM) in 25 mM HEPES (pH 7.5), 100 mM KCl, 25 mM MgCl2; ClpX and ClpP incubated with ATPγS for 5 min at room temperature before λO-Arc was added; the substrate-free class was refined
full-length E. coli ClpX = biological target: B1; test: as above; conditions: both partners purified
[2] = biological target: the molecule itself; test: cryo-EM structure; single-chain ClpX^∆N (3 µM pseudohexamer) and ClpP (1.5 µM tetradecamer) in 20 mM HEPES (pH 7.5), 100 mM KCl, 25 mM MgCl2, incubated with ATP (5 mM) for 15 min at room temperature; doubly capped and singly capped particles

| binding result (full-length E. coli ClpX) | Binder | stoichiometry N [1] | stoichiometry N [2] |
| --- | --- | --- | --- |
|  | B1 | 6 subunits |  |
| binds | B2 |  | 14 subunits |
